As usually defined, the Kd is the constant that tells how readily two partners part at equilibrium.

The values that follow come from article PMC4890791.

Holding throughout (experiment): EMSA
Details in all cases: EMSA: 10 mM NaCl, 0.1 mM DTT, 0.1 mM EDTA, 10 mM Tris pH 7.4, 25 C 30 min (22-42 C series in Fig 5C), 20 ng Cy5 probe, poly(dI:dC); footprinting: 400 ng FAM …
(In EMSA bound probe runs differently from free probe, usually more slowly.)

Data set [1] deals with T1, RpoE (sigma E) (Vibrio alginolyticus (EPGS)) (UniProt A0A0H0YA85).
T1 sequence: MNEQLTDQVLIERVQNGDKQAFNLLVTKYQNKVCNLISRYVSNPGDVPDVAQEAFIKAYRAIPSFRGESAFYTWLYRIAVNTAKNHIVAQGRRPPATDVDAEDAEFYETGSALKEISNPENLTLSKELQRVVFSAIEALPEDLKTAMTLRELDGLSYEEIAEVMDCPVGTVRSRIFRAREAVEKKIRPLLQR

The test system of data set [2] is RpoE (sigma E) (Vibrio alginolyticus (EPGS)).
Data set [3] has as its system T2, AphA (Vibrio alginolyticus (EPGS)), ORF:ebbe691c.
T2 sequence: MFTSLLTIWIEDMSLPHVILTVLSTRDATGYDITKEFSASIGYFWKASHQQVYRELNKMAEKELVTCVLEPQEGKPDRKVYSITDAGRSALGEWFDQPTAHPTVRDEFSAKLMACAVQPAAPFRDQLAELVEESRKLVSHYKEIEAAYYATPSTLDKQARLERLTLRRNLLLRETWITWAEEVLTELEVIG

Consider “AAGATGCTCGCTTGTCAAACTTAGACTAAAGTCAGGCAGCGGTGGTCATTTGGGTACAGACATCACACTGTGAAAAAACAATGACAAAAAACTTGAGAAACCATGGAACTTTCTCATTCACGTTAGGGTCACAATAGTGCTCAAGTAAGCAGTGGTGTCAATACTACGTTTTGCATAATTAGTACCCATATCTGAGAAGAGTAGGGGCATAACAAATAGGAGTATCCGCTCGAATG (double strand) [PrpoE]”, for which, in data set [1], the equilibrium dissociation constant (Kd) came to 76 nM and the binding entry was “binds”.
As to PluxR, the Kd in data set [2] is 83 nM. This lies in the double-digit nanomolar range.
For the substance “AGTCGCACGCAAACGATCACCTAATCTTACGGCGTGTAGTGTATCACCACGTTCATTGGGTTGAAAGTCGCATCCTGTTGCCAAAAAATCTTGGAAGAAGGTCTTAGTTTTATAAAGTTCATAGCTAAATTTATCAATAATAATGACATTACTGTATATAAATTGTTCTACAGATGTTGACCTTGTGCATATGCACCATTACACTCATCACTGCTTTAAGCAACTATTAAAATAATCAATTAGGGGGTTACCCCCAATATCAACTCAAATGGCAAGGAAAATGGAT (double strand) [PluxR]”, the binding result in data set [3] and in data set [1] was “binds” each time. Besides, the Kd in data set [1] is 83 nM.
PrpoE displayed a Kd in data set [2] of 76 nM.
Same read-out and setting: next, PrpoH: 75 nM.
